System: T1, TMR-Val-Pro-Arg-Gly-Lys-TMR
T1 sequence: XPRGX

In the case of trypsin, the average fluorescence ratio w/ trypsin : w/o trypsin, excitation 360 nm, emission 570-585 nm is reported as 26 fold, the average fluorescence ratio w/ trypsin : w/o trypsin, excitation 522 nm, emission 570-585 nm is reported as 28 fold and the average fluorescence ratio w/ trypsin : w/o trypsin, excitation 530 nm, emission 570-585 nm is reported as 27 fold. For the same substance, the average fluorescence ratio w/ trypsin : w/o trypsin, excitation 553 nm, emission 570-585 nm was 25 fold, the fluorescence ratio w/ trypsin : w/o trypsin, excitation 360 nm, emission 570 nm was 27 fold and the fluorescence ratio w/ trypsin : w/o trypsin, excitation 360 nm, emission 571 nm was 25 fold. It also gave a fluorescence ratio w/ trypsin : w/o trypsin, excitation 360 nm, emission 572 nm of 25 fold, a fluorescence ratio w/ trypsin : w/o trypsin, excitation 360 nm, emission 573 nm of 25 fold and a fluorescence ratio w/ trypsin : w/o trypsin, excitation 360 nm, emission 574 nm of 27 fold. For the same substance, the fluorescence ratio w/ trypsin : w/o trypsin, excitation 360 nm, emission 575 nm was 24 fold, the fluorescence ratio w/ trypsin : w/o trypsin, excitation 360 nm, emission 576 nm was 24 fold and the fluorescence ratio w/ trypsin : w/o trypsin, excitation 360 nm, emission 577 nm was 26 fold. It also gave a fluorescence ratio w/ trypsin : w/o trypsin, excitation 360 nm, emission 578 nm of 26 fold, a fluorescence ratio w/ trypsin : w/o trypsin, excitation 360 nm, emission 579 nm of 25 fold and a fluorescence ratio w/ trypsin : w/o trypsin, excitation 360 nm, emission 580 nm of 27 fold. For the same substance, the fluorescence ratio w/ trypsin : w/o trypsin, excitation 360 nm, emission 581 nm was 27 fold, the fluorescence ratio w/ trypsin : w/o trypsin, excitation 360 nm, emission 582 nm was 26 fold and the fluorescence ratio w/ trypsin : w/o trypsin, excitation 360 nm, emission 583 nm was 28 fold. For the same substance, the fluorescence ratio w/ trypsin : w/o trypsin, excitation 360 nm, emission 584 nm was 24 fold, the fluorescence ratio w/ trypsin : w/o trypsin, excitation 360 nm, emission 585 nm was 27 fold and the fluorescence ratio w/ trypsin : w/o trypsin, excitation 522 nm, emission 570 nm was 29 fold. For the same substance, the fluorescence ratio w/ trypsin : w/o trypsin, excitation 522 nm, emission 571 nm was 27 fold, the fluorescence ratio w/ trypsin : w/o trypsin, excitation 522 nm, emission 572 nm was 29 fold and the fluorescence ratio w/ trypsin : w/o trypsin, excitation 522 nm, emission 573 nm was 29 fold. For the same substance, the fluorescence ratio w/ trypsin : w/o trypsin, excitation 522 nm, emission 574 nm was 27 fold, the fluorescence ratio w/ trypsin : w/o trypsin, excitation 522 nm, emission 575 nm was 27 fold and the fluorescence ratio w/ trypsin : w/o trypsin, excitation 522 nm, emission 576 nm was 29 fold. It also gave a fluorescence ratio w/ trypsin : w/o trypsin, excitation 522 nm, emission 577 nm of 27 fold, a fluorescence ratio w/ trypsin : w/o trypsin, excitation 522 nm, emission 578 nm of 28 fold and a fluorescence ratio w/ trypsin : w/o trypsin, excitation 522 nm, emission 579 nm of 27 fold. It also gave a fluorescence ratio w/ trypsin : w/o trypsin, excitation 522 nm, emission 580 nm of 29 fold, a fluorescence ratio w/ trypsin : w/o trypsin, excitation 522 nm, emission 581 nm of 27 fold and a fluorescence ratio w/ trypsin : w/o trypsin, excitation 522 nm, emission 582 nm of 29 fold. For the same substance, the fluorescence ratio w/ trypsin : w/o trypsin, excitation 522 nm, emission 583 nm was 28 fold, the fluorescence ratio w/ trypsin : w/o trypsin, excitation 522 nm, emission 584 nm was 27 fold and the fluorescence ratio w/ trypsin : w/o trypsin, excitation 522 nm, emission 585 nm was 28 fold. It also gave a fluorescence ratio w/ trypsin : w/o trypsin, excitation 530 nm, emission 570 nm of 28 fold, a fluorescence ratio w/ trypsin : w/o trypsin, excitation 530 nm, emission 571 nm of 28 fold and a fluorescence ratio w/ trypsin : w/o trypsin, excitation 530 nm, emission 572 nm of 27 fold. For the same substance, the fluorescence ratio w/ trypsin : w/o trypsin, excitation 530 nm, emission 573 nm was 28 fold, the fluorescence ratio w/ trypsin : w/o trypsin, excitation 530 nm, emission 574 nm was 27 fold and the fluorescence ratio w/ trypsin : w/o trypsin, excitation 530 nm, emission 575 nm was 28 fold. The fluorescence ratio w/ trypsin : w/o trypsin, excitation 530 nm, emission 576 nm was 27 fold, the fluorescence ratio w/ trypsin : w/o trypsin, excitation 530 nm, emission 577 nm was 28 fold and the fluorescence ratio w/ trypsin : w/o trypsin, excitation 530 nm, emission 578 nm was 27 fold. It also gave a fluorescence ratio w/ trypsin : w/o trypsin, excitation 530 nm, emission 579 nm of 26 fold, a fluorescence ratio w/ trypsin : w/o trypsin, excitation 530 nm, emission 580 nm of 27 fold and a fluorescence ratio w/ trypsin : w/o trypsin, excitation 530 nm, emission 581 nm of 27 fold. The fluorescence ratio w/ trypsin : w/o trypsin, excitation 530 nm, emission 582 nm was 27 fold, the fluorescence ratio w/ trypsin : w/o trypsin, excitation 530 nm, emission 583 nm was 27 fold and the fluorescence ratio w/ trypsin : w/o trypsin, excitation 530 nm, emission 584 nm was 27 fold. The fluorescence ratio w/ trypsin : w/o trypsin, excitation 530 nm, emission 585 nm was 27 fold, the fluorescence ratio w/ trypsin : w/o trypsin, excitation 553 nm, emission 570 nm was 25 fold and the fluorescence ratio w/ trypsin : w/o trypsin, excitation 553 nm, emission 571 nm was 25 fold. It also gave a fluorescence ratio w/ trypsin : w/o trypsin, excitation 553 nm, emission 572 nm of 25 fold, a fluorescence ratio w/ trypsin : w/o trypsin, excitation 553 nm, emission 573 nm of 25 fold and a fluorescence ratio w/ trypsin : w/o trypsin, excitation 553 nm, emission 574 nm of 25 fold. For the same substance, the fluorescence ratio w/ trypsin : w/o trypsin, excitation 553 nm, emission 575 nm was 24 fold, the fluorescence ratio w/ trypsin : w/o trypsin, excitation 553 nm, emission 576 nm was 25 fold and the fluorescence ratio w/ trypsin : w/o trypsin, excitation 553 nm, emission 577 nm was 25 fold. For the same substance, the fluorescence ratio w/ trypsin : w/o trypsin, excitation 553 nm, emission 578 nm was 25 fold, the fluorescence ratio w/ trypsin : w/o trypsin, excitation 553 nm, emission 579 nm was 24 fold and the fluorescence ratio w/ trypsin : w/o trypsin, excitation 553 nm, emission 580 nm was 25 fold. It also gave a fluorescence ratio w/ trypsin : w/o trypsin, excitation 553 nm, emission 581 nm of 24 fold, a fluorescence ratio w/ trypsin : w/o trypsin, excitation 553 nm, emission 582 nm of 25 fold and a fluorescence ratio w/ trypsin : w/o trypsin, excitation 553 nm, emission 583 nm of 24 fold. The fluorescence ratio w/ trypsin : w/o trypsin, excitation 553 nm, emission 584 nm was 25 fold and the fluorescence ratio w/ trypsin : w/o trypsin, excitation 553 nm, emission 585 nm was 25 fold.
With “trypsin-like enzyme of Vibrio parahaemolyticus” the “increase in fluorescence on cleavage of the substrate” value was “Cleavage by the trypsin-like enzyme produced an increase in fluorescence”.
